Our source for the Kd values is paper PMC7160673 (2020).

Like-named read-outs stand apart in the source and are kept apart here. Where no end group is shown, it is not given here. [ ]: non-standard residue; d: D form. The star is where a group is joined. 5FAM = O=C1OC2(c3ccc(O)cc3Oc3cc(O)ccc32)c2ccc(C(=O)*)cc21; Lys(Me3) = C[N+](C)(C)CCCC[C@H](N)C(=O)O

What all share (test): FP
The target in assay [1] is T1, M Phase Phosphoprotein 8 chromodomain (UniProt Q99549 55-116).
T1 chain: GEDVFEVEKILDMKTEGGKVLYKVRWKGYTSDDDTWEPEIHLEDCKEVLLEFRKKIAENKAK

Assay [2] deals with T2, Chromodomain Y-like protein 2 chromodomain.
T2 chain: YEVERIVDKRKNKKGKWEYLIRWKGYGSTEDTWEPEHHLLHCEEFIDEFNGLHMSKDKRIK

In assay [3] the target is T1, M Phase Phosphoprotein 8 chromodomain.

Broadly, the Kd is the constant that tells how readily two partners part at equilibrium. Read a high Kd as lower affinity. As to 5FAM-WAY[Lys(Me3)]TGK (also: flanking glycines, number not given here) [FAM-WAY(Kme3)TGK peptide], the Kd in assay [1] came out at 1.37 µM. Regarding 5FAM-TAR[Lys(Me3)]STG (also: flanking glycines, number not given here) [FAM-TAR(Kme3)STG peptide (H3K9me3)], the Kd in assay [2] came to 18.4 µM; in assay [3], 11.5 µM.
